Broadly, the Kd is the equilibrium constant for the complex coming apart. High values mean lower affinity, low ones higher affinity. Broadly, the koff is the first-order rate constant of dissociation. Higher therefore signals a short-lived complex. One may read the kon as the rate constant with which the complex forms. Lower therefore signals slower complex formation.

For 13 molecules, Kd, koff and kon results are on record in publication PMC10334784 (Proceedings of the National Academy of Sciences of the …, 2023).

Sequences and labels used below:
B1: CXCL11 (ligand)
chain: FPMFKRGRCLCIGPGVKAVKVADIEKASIMYPSNNCDKIEVIITLKENKGQRCLNPKSKQARLIIKKVERKNF
B2: CXCL14 (ligand)
chain: SKCKCSRKGPKIRYSDVKKLEMKPKYPHCEEKMVIITTKSVSRYRGQEHCLHPKLQSTKRFIKWYNAWNEKRRVYEE
B3: CCL11 (ligand)
chain: not shown
B4: CCL28 (ligand)
chain: SEAILPIASSCCTEVSHHISRRLLERVNMCRIQRADGDCDLAAVILHVKRRRICVSPHNHTVKQWMKVQAAKKNGKGNVCHRKKHHGKRNSNRAHQGKHETYGHKTPY
B5: IL27 (complex)
chain 1: FPRPPGRPQLSLQELRREFTVSLHLARKLLSEVRGQAHRFAESHLPGVNLYLLPLGEQLPDVSLTFQAWRRLSDPERLCFISTTLQPFHALLGGLGTQGRWTNMERMQLWAMRLDLRDLQRHLRFQVLAAGFNLPEEEEEEEEEEEEERKGLLPGALGSALQGPAQVSWPQLLSTYRLLHSLELVLSRAVRELLLLSKAGHSVWPLGFPTLSPQP
chain 2: RKGPPAALTLPRVQCRASRYPIAVDCSWTLPPAPNSTSPVSFIATYRLGMAARGHSWPCLQQTPTSTSCTITDVQLFSMAPYVLNVTAVHPWGSSSSFVPFITEHIIKPDPPEGVRLSPLAERQLQVQWEPPGSWPFPEIFSLKYWIRYKRQGAARFHRVGPIEATSFILRAVRPRARYYVQVAAQDLTDYGELSDWSLPATATMSLGK
B6: CCL5 (ligand)
chain: SPYSSDTTPCCFAYIARPLPRAHIKEYFYTSGKCSNPAVVFVTRKNRQVCANPEKKWVREYINSLEMS
B7: CXCL13 (ligand)
chain: VLEVYYTSLRCRCVQESSVFIPRRFIDRIQILPRGNGCPRKEIIVWKKNKSIVCVDPQAEWIQRMMEVLRKRSSSTLPVPVFKRKIP
B8: CXCL9 (ligand)
chain: TPVVRKGRCSCISTNQGTIHLQSLKDLKQFAPSPSCEKIEIIATLKNGVQTCLNPDSADVKELIKKWEKQVSQKKKQKNGKKHQKKKVLKVRKSQRSRQKKTT
B9: CCL21 (ligand)
chain: SDGGAQDCCLKYSQRKIPAKVVRSYRKQEPSLGCSIPAILFLPRKRSQAELCADPKELWVQQLMQHLDKTPSPQKPAQGCRKDRGASKTGKKGKGSKGCKRTERSQTPKGP
B10: CCL25 (ligand)
chain: QGVFEDCCLAYHYPIGWAVLRRAWTYRIQEVSGSCNLPAAIFYLPKRHRKVCGNPKSREVQRAMKLLDARNKVFAKLHHNTQTFQAGPHAVKKLSSGNSKLSSSKFSNPISSSKRNVSLLISANSGL
B11: CCL13 (ligand)
chain: not shown
B12: CCL26 (ligand)
chain: TRGSDISKTCCFQYSHKPLPWTWVRSYEFTSNSCSQRAVIFTTKRGKKVCTHPRKKWVQKYISLLKTPKQL
B13: HCoV-OC43 nucleocapsid (N) protein, 2X-StrepTag tagged (natural protein)
chain: MSFTPGKQSSSRASSGNRSGNGILKWADQSDQVRNVQTRGRRAQPKQTATSQQPSGGNVVPYYSWFSGITQFQKGKEFEFVEGQGPPIAPGVPATEAKGYWYRHNRGSFKTADGNQRQLLPRWYFYYLGTGPHAKDQYGTDIDGVYWVASNQADVNTPADIVDRDPSSDEAIPTRFPPGTVLPQGYYIEGSGRSAPNSRSTSRTSSRASSAGSRSRANSGNRTPTSGVTPDMADQIASLVLAKLGKDATKPQQVTKHTAKEVRQKILNKPRQKRSPNKQCTVQQCFGKRGPNQNFGGGEMLKLGTSDPQFPILAELAPTAGAFFFGSRLELAKVQNLSGNPDEPQKDVYELRYNGAIRFDSTLSGFETIMKVLNENLNAYQQQDGMMNMSPKPQRQRGHKNGQGENDNISVAVPKSRVQQNKSRELTAEDISLLKKMDEPYTEDTSEI

The first assay concerns the target B13. The experiment in a line: BLI.
In turn, B1 yielded a Kd of 730 nM, a koff of 0.012 s⁻¹ and a kon of 18000 M⁻¹ s⁻¹.
In the same order, the values of B2 are 580 nM, 0.0063 s⁻¹ and 12000 M⁻¹ s⁻¹.
In the same order, the values of B3 are 1400 nM, 0.021 s⁻¹ and 17000 M⁻¹ s⁻¹.
In the case of B4, the affinity, expressed as Kd, was 27 nM; the koff is 0.0015 s⁻¹; the on-rate constant (kon) came to 60000 M⁻¹ s⁻¹.
For B5 the same measures were 55 nM, 0.0024 s⁻¹ and 51000 M⁻¹ s⁻¹.
In the same order, the values of B6 are 56000 nM, 0.015 s⁻¹ and 2100 M⁻¹ s⁻¹.
In the same order, the values of B7 are 140 nM, 0.0046 s⁻¹ and 44000 M⁻¹ s⁻¹.
B8 yielded a Kd of 29 nM, an off-rate constant (koff) of 0.0022 s⁻¹ and a kon of 82000 M⁻¹ s⁻¹.
In the same order, the values of B9 are 290 nM, 0.012 s⁻¹ and 67000 M⁻¹ s⁻¹.
In turn, B10 displayed a Kd of 610 nM, a koff of 0.0048 s⁻¹ and a kon of 8300 M⁻¹ s⁻¹.
For B11 the same measures were 1600 nM, 0.025 s⁻¹ and 19000 M⁻¹ s⁻¹.
For B12 the same measures were 620 nM, 0.014 s⁻¹ and 20000 M⁻¹ s⁻¹.

In another assay the target is CXCL12α (human, UniProt P48061-2 22-89). The assay is described as follows: BLI.
Sequence of CXCL12α (P48061 22-89): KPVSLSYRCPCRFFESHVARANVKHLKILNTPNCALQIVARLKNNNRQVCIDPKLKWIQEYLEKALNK
Take B13: the dissociation constant Kd stood at 0.46 nM, the koff is 3.7e-05 s⁻¹ and the kon was 62000 M⁻¹ s⁻¹.
